Assay [1] concerns the target eGFP-MUC4β fusion protein (transmembrane β subunit of MUC4) (human) (UniProt Q99102). The assay can be described thus: MST; normal model, optimised conditions: MPer lysate with the eGFP fusion kept constant around 33 nM, Fc protein titrated 1:1 in PBS with 0.05% P20 from 1 µM to 0.05 nM; 80% MST power, MST-on 30 s; blue LED.
The target is the same in assay [2]. The assay can be described thus: MST; normal model: eGFP fusion in CHO-K1 lysate kept constant, ErbB2-Fc titrated, label-free; lysis buffer MPer, dilution in MST buffer; 23 °C.
The target is the same in assay [3]. Kind of assay: MST; normal model: eGFP fusion in CHO-K1 lysate kept constant, ErbB2-Fc titrated, label-free; lysis buffer RIPA, dilution in Tris-based MST buffer; 23 °C.
Assay [4] has the same target. The assay can be described thus: MST; normal model: eGFP fusion in CHO-K1 lysate kept constant, ErbB2-Fc titrated, label-free; lysis buffer RIPA, dilution in PBS; 23 °C.
Assay [5] has as its target T1, recombinant human ErbB2-Fc chimera (human, UniProt P04626 23-652).
T1 construct: ErbB2 receptor tyrosine kinase, human; extracellular domains, lacks the TM and CT part; Described as a disulfide-linked homodimeric protein; In the reverse model it was labelled on its 6His-tag with RED-tris-NTA dye (not covalent); also called recombinant ErbB2
The assay can be described thus: MST; normal model, optimised conditions: MPer lysate with the eGFP fusion kept constant around 33 nM, Fc protein titrated 1:1 in PBS with 0.05% P20 from 1 µM to 0.05 nM; 80% MST power, MST-on 30 s; blue LED. The following applies: one partner purified.

Assay [6] deals with T1, recombinant human ErbB2-Fc chimera. The assay can be described thus: MST; reverse model: ErbB2-Fc labelled on its 6His-tag with RED-tris-NTA dye kept constant, MPer lysate containing the eGFP fusion titrated 3:1 in PBS with 0.05% P20 (up to about 400 nM); red LED, 80% MST power. The conditions noted are these: one partner purified.

One may read the Kd as the constant that tells how readily two partners part at equilibrium.

On to “recombinant human ErbB2-Fc chimera (from UniProt P04626 23-652) (Fc fusion)”, for which the Kd is 131 nM in assay [1], over 20 µM in assay [2], over 20 µM in assay [3] and over 20 µM in assay [4].
For “PD-1-Fc (non-relevant protein containing the same Fc as recombinant ErbB2) (from UniProt Q15116 25-170) (Fc fusion)”, in assay [1], the Kd is over 20000 nM.

B1: eGFP-MUC4_(EGF3+1+2) (truncated mutant encompassing only the EGF domains of MUC4) (domain or fragment, human, UniProt Q99102 5118-5360, looked up)
chain: QNQSCPVNYCYNQGHCYISQTLGCQPMCTCPPAFTDSRCFLAGNNFSPTVNLELPLRVIQLLLSEEENASMAEVNASVAYRLGTLDMRAFLRNSQVERIDSAAPASGSPIQHWMVISEFQYRPRGPVIDFLNNQLLAAVVEAFLYHVPRRSEEPRNDVVFQPISGEDVRDVTALNVSTLKAYFRCDGYKGYDLVYSPQSGFTCVSPCSRGYCDHGGQCQHLPSGPRCSCVSFSIYTAWGEHCE
notes: MUC4, UniProt Q99102; said to hold the three EGF-like domains EGF3, EGF1 and EGF2 with what lies between; source: CHO-K1, transfected (peGFP-C1), selected, in cell lysate, used without further purification
With B1, the results for the dissociation constant Kd in assay [5] and in assay [6] were 79 ± 18 nM and 65 ± 14 nM, respectively.

The record behind these values is paper PMC6853952, “MUC4-ErbB2 Oncogenic Complex: Binding studies using Microscale Thermophoresis” (Scientific Reports, 2019).
